# US20250026849A1 (ARCELLX, published 2025)
# T1: CD123 (Homo sapiens (Human), UniProt P26951 19-305, limits assumed)
# T1 construct: The CD123 construct used in the ELISA is not described; also called CD123-Signal
# T1 sequence: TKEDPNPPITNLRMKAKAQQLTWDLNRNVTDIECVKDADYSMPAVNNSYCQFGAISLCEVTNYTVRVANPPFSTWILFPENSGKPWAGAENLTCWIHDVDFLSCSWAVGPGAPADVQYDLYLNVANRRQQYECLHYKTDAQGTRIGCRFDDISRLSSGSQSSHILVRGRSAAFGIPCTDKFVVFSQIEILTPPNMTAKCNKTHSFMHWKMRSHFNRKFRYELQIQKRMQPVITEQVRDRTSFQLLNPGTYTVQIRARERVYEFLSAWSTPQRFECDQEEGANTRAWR
# Target: T1, CD123
# Test: ELISA
# Set-up: unit not given here
row,Binder,ELISA_avg
1,D domain of SEQ ID NO: 550 (designed binder) MGSWTYFKNDLAGIKEDLEALGGSEAELAQFEFEIAEFEWLLQDYKGKGNPEVEALRKEAAAIRDELQAYRHN,3.6
2,D domain of SEQ ID NO: 538 (designed binder) MGSWFMFKQELAWIKEDLEALGGSEAELADFEWDIAEFEWDLQYYKGKGNPEVEALRKEAAAIRDELQAYRHN,7.2
3,D domain of SEQ ID NO: 539 (designed binder) MGSWQIFKGELAYIKQYLEALGGSEAELAFFEFDIAEFEEDLQYYKGKGNPEVEALRKEAAAIRDELQAYRHN,4.7
4,D domain of SEQ ID NO: 542 (designed binder) MGSWYQFKTELAWIKDDLEALGGSEAELAWFEWVIADFEDDLQFYKGKGNPEVEALRKEAAAIRDELQAYRHN,6.6
5,D domain of SEQ ID NO: 543 (designed binder) MGSWFEFKDYLADIKWDLEALGGSEAELAIFEHDIAYFEHNLQQYKGKGNPEVEALRKEAAAIRDELQAYRHN,3.8
6,D domain of SEQ ID NO: 544 (designed binder) MGSWVRFKDFLADIKMDLEALGGSEAELADFEYHIAEFEHNLQEYKGKGNPEVEALRKEAAAIRDELQAYRHN,5.8
7,D domain of SEQ ID NO: 545 (designed binder) MGSWWLFKEQLALIKYNLEALGGSEAELADFESWIAEFEHQLQEYKGKGNPEVEALRKEAAAIRDELQAYRHN,4.1
8,D domain of SEQ ID NO: 540 (designed binder) MGSWDFFKEELAEIKHYLEALGGSEAELAFFEFWIADFEQDLQEYKGKGNPEVEALRKEAAAIRDELQAYRHN,3.7
9,D domain of SEQ ID NO: 541 (designed binder) MGSWFNFKEELAVIKFQLEALGGSEAELAFFEWVIADFEDDLQEYKGKGNPEVEALRKEAAAIRDELQAYRHN,6.1

# Other lines, results leading:
row,ELISA_avg,Binder
1,6.9,D domain of SEQ ID NO: 549 (designed binder) MGSWTWFKDNLAWIKEDLEALGGSEAELAWFELEIASFETALQDYKGKGNPEVEALRKEAAAIRDELQAYRHN
2,5.9,D domain of SEQ ID NO: 551 (designed binder) MGSWTWFKWDLADIKGDLEALGGSEAELAFFEEEIAEFEWRLQDYKGKGNPEVEALRKEAAAIRDELQAYRHN
3,3.7,D domain of SEQ ID NO: 552 (designed binder) MGSWLYFKEYLADIKSDLEALGGSEAELAWFEYEIADFEEQLQYYKGKGNPEVEALRKEAAAIRDELQAYRHN
4,7.3,D domain of SEQ ID NO: 547 (designed binder) MGSWIWFKDWLADIKDLLEALGGSEAELAEFEYDIALFEDQLQAYKGKGNPEVEALRKEAAAIRDELQAYRHN
5,5.4,D domain of SEQ ID NO: 546 (designed binder) MGSWHVFKTELADIKFYLEALGGSEAELAMFELWIAEFEHELQDYKGKGNPEVEALRKEAAAIRDELQAYRHN
6,3.1,D domain of SEQ ID NO: 553 (designed binder) MGSWHWFKEELAEIKEDLVALGGSEAELAWFEYDIAMFELSLQNYKGKGNPEVEALRKEAAAIRDELQAYRHN
7,3.8,D domain of SEQ ID NO: 554 (designed binder) MGSWNDFKEELAWIKFDLEALGGSEAELAWFEEDIAMFEQQLQAYKGKGNPEVEALRKEAAAIRDELQAYRHN
8,4.2,D domain of SEQ ID NO: 555 (designed binder) MGSWWDFKDWLAEIKHDLEALGGSEAELALFESEIADFEFGLQWYKGKGNPEVEALRKEAAAIRDELQAYRHN
9,3.3,D domain of SEQ ID NO: 548 (designed binder) MGSWGWFKHELAFIKADLEALGGSEAELAWFEEEIAEFEYELQFYKGKGNPEVEALRKEAAAIRDELQAYRHN
